The text below walks through data of the nanobody polyreactivity screen of Harvey et al. (2022).

The nature of the series: yeast display, Sf9 membrane polyspecificity reagent, FACS + sequencing; frameworks hold sequencing errors. In a few lines:
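Galactose-induced (36–48 hours) yeast carrying a synthetic nanobody display library were exposed to 10% biotinylated, detergent-solubilized Sf9 membrane reagent at 4 °C for 1 hour. FACS followed streptavidin microbead enrichment, using low and high (top ~1%) gates for expression (anti-HA) and reagent binding (streptavidin). Colony PCR, MiSeq 2 × 250 sequencing and CDR-length filtering followed. Labels for polyreactivity reflect the gate of origin.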
On to “QVQLVESGVGLVQAGGSLRLSCAASGSIFVYYAMGWYRPAPGKERELVAAINFRGGNTYYADSVKGRFTISRDNAKNTVYLQMNRLKPEDTAVYYCAADYRWKWIGGARYDYWGQGTQVTVSS”, for which the “polyreactivity (PSR sort gate)” value is “low polyreactivity”.

In the case of “QVQLVESGGGLVQAGGSLRLSCAASGSTFVHNGMGWYRQAPGIDRELVGAITDGGSTYYADSVKGRFTISRDNAKNTVYLQMNSLKPEDTAVYYCAAGYSRYGYFRGYRYYYWGQGTQVTVSS”, the “polyreactivity (PSR sort gate)” value is “low polyreactivity”.

In the case of “QVQLVESGGGLVQAGGSLRLSCAASGSTFGGNAMGWYRQAPGKERELVAAISSTGGSTYYADSVKGRFTISRDNAKNTVYLQMNSLKPEDTAVYYCAALYHWTYDYWGQGTQVTVSS”, the “polyreactivity (PSR sort gate)” value is given as “low polyreactivity”.

As for “QVHLVESGGGLVQAGGSLRLSFAASRSIFSKYVMGWYRQAPGKERELVASITSGGRTNYADSVKGRFTISRDNAKNTVYLQMNSLKPEDTAVYYCAARAFKTWYRSGVDYWGQGTQVTVSS”, the “polyreactivity (PSR sort gate)” value is given as “low polyreactivity”.

Turning to “QVQLVESGGGLVQAGGSLRLSCAASGFIFTLYAMGWYRKAPGKEREFVAAISWSDGSTTYADSVKGRFTISRDNAKNTVYLQMNSLKPEDTAVYYCNTSYIIWYDSWGQGTQVTVSS”, the “polyreactivity (PSR sort gate)” value was “low polyreactivity”.

In the case of “QVQLVDSGAGLVQAGGSLRISCVPPDSTTQSKLGDRIHRRLGKKVTWLPVLTSRGVGSYYADSVKGRFTISRDNAKNTVYLQMNSLIPEDTAVYYCNARYEVFYRYDYWGQGTQVSVSS”, the “polyreactivity (PSR sort gate)” value is listed as “low polyreactivity”.

As for “QVQLGESGGGLVQAGGSLRLSCAASGSTFRINAMGWYRQAPGKERELVADINSGGNTTYADSVKGRFTISRDNAKNTVYLQMNSLKPEDTAVYYCAAPRTYYSELTSPYDYCGQGTQVTVSS”, the “polyreactivity (PSR sort gate)” value was “low polyreactivity”.

“QVQLVESGGGLVQAGGRLRLSCAASGYIFPKNAMGWYRQAPGKERELVAAITGSGGSTYYADSVKGRFTISRDNAKNTVYLQMNSLKPEDTAVYYCAKRSWIEYDYWGQGTQVTVSS”: the “polyreactivity (PSR sort gate)” value is listed as “low polyreactivity”.

Turning to “QVQLVESGGGLVQAGGSLRLSCAASGITFEYYAMGWYRQAPGKERELVAAISWSGSSTYYADSVKGRFTISRDNAKNTVYLQMNSLKPEDTAVYYCNADSSWWASDDQYDYWGQGTQVTVSS”, the “polyreactivity (PSR sort gate)” value is “low polyreactivity”.

Take “QVQLVESGGGIVQAGRSLRLSCAASGRIFYTNVMGWYRQAPGKERELDAAISSAGTTYYADSVKGRFTISRDNAKNTVYLQMNSLKPEDTAVYYCAADQVAYYGFDYWGQVTQVTVSS”: the “polyreactivity (PSR sort gate)” value is recorded as “low polyreactivity”.

“QVQIVESGGGLVQAGGSLRISCSASGRTLRSYAMGWYRHAPGKERELVAAISRSGGSTNYADSVKGRFTISHDNAKNTVYLQMNSLKPEETAVYYCNTYSTSWKMDYWGQGTKVTVSS”: the “polyreactivity (PSR sort gate)” value was “high polyreactivity”.

With “QVQLVESGGGLVQAGGSLRLSCAASGRIFRRNTMGWYRQAPGKERELVAAITSSGGSTYADSVKGRFTISRDNAKNTVYLQMKSLKPEDTAVYYCATYVAYHRGYRTYDHWGQGTQVTVSS”, the “polyreactivity (PSR sort gate)” value is listed as “low polyreactivity”.

As for “QVQLVESGGGLVQAGGSLRLSCAASGRIFYSNAMGWYRQAPGKERELVATISTGGSTYAESVKGRFTISRDNAKNTVYLQLISLTPEESAVYYCAVDEWRWRVGAVAYYYWGQGTQVTVSS”, the “polyreactivity (PSR sort gate)” value is listed as “low polyreactivity”.

As for “QVQLVESGGGLVQAGGSLRLSCAASGNTFAVNAMGWYRQAPGKERELVAAISKRGGRTYYADSVKGRFTISRDNAKNTVYLQMNSLKPEDTAVYYCNTGYIFSSFYSSKYGYWGQGTQVTVSS”, the “polyreactivity (PSR sort gate)” value is recorded as “high polyreactivity”.

Regarding “QVQLVESGGGLVQAGGSLRLSCAASGSIFVPYAMGWYRQAPGKERELVAAITRSSGSTYYADSVKGRFTISRDNAKNTVYVQMNSLKPQDSAVYYCAADFLLEFVYWGQGTQLTVSS”, the “polyreactivity (PSR sort gate)” value is “low polyreactivity”.

For the sequence “QVHLVESGGGLVQAGVSLRLSCAASGRTVVNAMGWYRQAPGKERELVAAISSNGGRTYYADSVKGRFTISRDNAKHSVYLQMNSLKPEDTAVYYCAAYNTHRYDYWGQGTQVTVSS”, the “polyreactivity (PSR sort gate)” value is reported as “high polyreactivity”.

Consider “QVQLVESGGGLVQAGGSLRLSCAASGSIFSYYVMGWYRQAPGKERELVARINWSSTSTYYADSVKGRFTISRDNAKNTVYLQMHSLKPEDTAVYYCAAAKRYGRYYEYDYWGQGTQVTVSS”, for which the “polyreactivity (PSR sort gate)” value is given as “high polyreactivity”.

With “QVQLVESGGGLVQAGGSLRLSCAASGLIFVVYAMGWYRQAPGKERELVAVISSDGGTYYADSVKGRFTISRDNAKNTVYLQMNSLKPEDTAVYYCAALGYPNARTSRISYFRYDYWGQGTQVTVSS”, the “polyreactivity (PSR sort gate)” value was “high polyreactivity”.

On to “QVQLVDSGGGLVQAGGSLRLSCAASGRIFRDNCMVCYRQAPGKERELVAAIRRSGGSTYYADSVKGRFTISRDNAKNSVYLQMNSLIPEDTAVYYCATPPYPGREYWGQGSQVTVSS”, for which the “polyreactivity (PSR sort gate)” value is “high polyreactivity”.

Regarding “QVQLVESGGGLVQAGGSLRLSCAASGSILWHNAMGCYRQAPGKEREFVAAISARGTRTYYADSVKGRFTISRDNAKITVYLQMNSLKPEDTAVDYCAARYWDDRARAEDYWGQGTQVTVSS”, the “polyreactivity (PSR sort gate)” value is reported as “high polyreactivity”.

Regarding “QVQLVESGGGLVQAGGSLRLSCAASGRIFGLYAMGWYRQAPGKERELVAAITRGGRTNYADSVKGRFTISRDNAKNTVYLQMNSLKPEDTAVYYCAADYRYTRGRRDYWGQGTQVTVSS”, the “polyreactivity (PSR sort gate)” value is given as “high polyreactivity”.

On to “QVQLVESGGGLVQARGSLRLSCASSGSTFSRYAMGWYRQAPGKERELVAGISWSGGNTYYADSVKGRFTISRDNAKNTVYLQMNSLKPEDTAVYYCAADFLDYWGVYGWAEYEYWGQGTQVTVSS”, for which the “polyreactivity (PSR sort gate)” value is “low polyreactivity”.

As for “QVQLVESGGGLVQAGGSLRLSCAASGYIFLRNSLGWYRQAPGKERELVAAIRRTGGSTYYADSVKGRFTISRDNAKNTVYLQMNSLKPEDTAVYYCAKRSYTGYEYWGQGTQVTVSS”, the “polyreactivity (PSR sort gate)” value was “low polyreactivity”.

“QVQLVESGGGLVQAGGTLRLSCAASGFTFTSNAMGWYRQEPGKERELVAAITSSGGITYYADSVKGRFTISRDNAKNTVYLQMNSLKPEDNAVYYCAASISSYNSPGYGYWGQGTQVTVSS”: the “polyreactivity (PSR sort gate)” value is reported as “low polyreactivity”.

For the sequence “QVQLVESGGGLVQAGGSLRLSCAASGRIFQIYAMGWYRQAHGKERELVAAISSGGTTYYADSVKGRFTISRDNAKYTVYLLMNSLKPEDTAVYYCADASGYYRYDYWGQGTQVTVSS”, the “polyreactivity (PSR sort gate)” value is on record as “high polyreactivity”.

With “QVQLVESGGGLVQAGGSLRLSCAASGSTFSYNAMGWYIQAPGKERELVAAISWSGGSTYYADSVKGRFTISRDYAKNTVYLQMNSLKPEDTAVYYCAADSPYGYYEGDYWGQGTQVTVSS”, the “polyreactivity (PSR sort gate)” value is listed as “low polyreactivity”.

On to “QVQLVESGGGLDLAGGSLRLTCAASGSTFTYYAMGWYRQAPGKERELVAAISWRGASTYYADSVKGRFTISRDNAKNTVYLQMNSLNPEDTAVNYCNAVKQRSSIFDYWGQGTQVTVSS”, for which the “polyreactivity (PSR sort gate)” value is “low polyreactivity”.

As to “QVQLVESGGGLVQAGGSLRLSCAASGSTFGTNAMGWYRQAPGKERELVARINSSASTTYADSVKGRFTISRDNAKNTVYLQMNSLKPEDTAVYYCNADDRHSRVGHSWQDAQFDYWVQGTQVTVSS”, the “polyreactivity (PSR sort gate)” value is recorded as “high polyreactivity”.

In the case of “QVQLVESGGGLVQAGGSLRLSCAASGSTFRVNAMGWYRQAPGKERELVAAISGSGSGTYYADSVKGRFTISRDNAKNTVYLQMNSLKPEDTAVYYCAKVPKSRGYVGGMDYWGQGTQVTVSS”, the “polyreactivity (PSR sort gate)” value is given as “low polyreactivity”.

Regarding “QVQLVESGGGLVQAGGSLRLSCAASGGTFRYYAMGWYRQAPGKERELVAAITSGDTTNYADSVKGRFTISRDNAKNTVYLQMNSLKPEDTAVYYCAKELQVRQAGDYWGQGTQVTVSS”, the “polyreactivity (PSR sort gate)” value is reported as “low polyreactivity”.

As to “QVQLVESGGGLVQAGGSLRLSCAASGSTFDDNDMGWYRQAPGKERELVAAISWSGGSTTYADSVKGRFTISRDYAKNTVYLQMNSLKPEDTAVYYCAADWYYWGFIFDYWGQGTQVTVSS”, the “polyreactivity (PSR sort gate)” value is “high polyreactivity”.

On to “QVQLVESGGGLVQAGGSLRLSCAASGSIFWYNAMGWYRQAPGKERELVAAIRWRGGSTYYADSVKGRFTISRDNAKNTVYVQMSSLKPEDTAVYYCAAQVYVSQLYTSYYYWGQGTQVTVSS”, for which the “polyreactivity (PSR sort gate)” value is listed as “high polyreactivity”.

With “QVQLVESGGGLVQAGGSLRLSCAASGSIFVGYAMGWYRQAPGKERELVATISSSATSTYYADSVKGRFTISRDNATNTVYLQMNSLKPEDTAVYSCAVERDYGWPIYIRWHFDYWGQGTQVTVAS”, the “polyreactivity (PSR sort gate)” value is reported as “low polyreactivity”.

Turning to “QVQLVESGGGLVQAEGSLRLSCAASGNTFERNTMGWYRQATGKERELVAAISWSGGRTYYADSVKGRFTISRDNAKNTVYLQLNSLKPEDTAVYYCAATNYYYGAGYYYWGQGTQVTVSS”, the “polyreactivity (PSR sort gate)” value is “high polyreactivity”.

Take “QVHLVESGGGLVQAGGSRRLSCAASGSIFRWYAMGWSRQAPGKERELVAAITRSGGRTYYADSVKGRFTISRDNAKNTVYLQMNSLKPEDTAVYYCAAVARTVPSYSYNYWGQGTQVTVSS”: the “polyreactivity (PSR sort gate)” value is recorded as “high polyreactivity”.

For the sequence “QVQLVESGGGLVQAGGSLRLSCAASGLTFVQYAMGWYRQAPGKERELVAAISRNGGSTYYADSVKGRFTISRDNAKNTVYLQMNSLKPEDTAVYYCATRISYPWWAYDYWGQGTQVTVSS”, the “polyreactivity (PSR sort gate)” value is given as “high polyreactivity”.

As to “QVQLVESGVGLVQAGVRLRLSCAASGITLRRYAMGWYRQAPGKEREFVAAISRTGGNTYYADSVKGRFTISRDNAKNTVYLQMNSLKPEDTAVYYCAREVYRHYAPVGYDYWGQGTQVTVSS”, the “polyreactivity (PSR sort gate)” value is reported as “high polyreactivity”.

For “QVQLVESGGGLVQAGGSLRLSCAASGRIFNYYAMGWYRQAPGKERELVAAINSGGSTYADSVKGRFTISRDNAKNTVYLQMNSLKPEDTAVYYSAKDGQLQSGRERPSGYDHWGQGTQVTVSS”, the “polyreactivity (PSR sort gate)” value is on record as “low polyreactivity”.

Take “QVQLVESVVGLVQAGVSLRLSCSASGFIFGRYAMGWYRQAPGKERELVADISWNGGSTYYADSVKGRFTISRDNAKNTVYLQMNSLKPEDTAVYYCAADYYWASFKYPYLRPYDYWGLGTQVTVSS”: the “polyreactivity (PSR sort gate)” value is “high polyreactivity”.

With “QVQLVESGGGLVQAGGSLRLSCAASGFTFWYYAMGWYRQAPGKERELVAAITYNGDRTYYADSVKGRFTISRDNAKNTVYLQMNSLKREDTAVYYCAVYLGIRSGTANDYWGQGTQVTVSS”, the “polyreactivity (PSR sort gate)” value is “high polyreactivity”.

Regarding “QVHLVESGGGLVQAGGSLRLSCAASGSIFLWYTMGWYRQAPGKERELVAAISRTGGSTYYADSVKGRFTISRDNAKNTVYLQMNSLKPEDTAVYYCAASLYSITRARYDYWGQGTQVTVSS”, the “polyreactivity (PSR sort gate)” value was “high polyreactivity”.
